This is an account of results in article PMC6171237, “UBN1/2 of HIRA complex is responsible for recognition and deposition of H3.3 at cis-regulatory elements of genes in mouse ES cells” (BMC Biology, 2018).

The experiment addresses T1, (H3.3-H4)2 tetramers (UniProt P84243 1-136; P62805 1-103).
T1 construct: Histone H3.3; Histone H4; also called H3.3-H4 tetramer; copies: 2 + 2
The experiment can be described thus: pull-down; GST fusion proteins immobilized on Glutathione Sepharose 4 Fast Flow, histone tetramers added in 20 mM HEPES-HCl pH 7.9, 500 mM NaCl, 1 mM EDTA, 5 mM 2-mercaptoethanol, 0.1% Nonidet P-40, overnight at 4 °C; Coomassie staining. The conditions noted are these: both partners purified.

B1: GST-UBN1 (1–213) (domain or fragment)
chain: MSEPHRVQFTSLPGSLNPAFLKKSRKEEAGAGEQHQDCEPAAAAVRITLTLFEPDHKRCPEFFYPELVKNIRGKVKGLQPGDKKKDLSDPFNDEEKERHKVEALARKFEEKYGGKKRRKDRIQDLIDMGYGYDESDSFIDNSEAYDELVPASLTTKYGGFYINSGTLQFRQASESEDDFIKEKKKKSPKKRKLKEGGEKIKKKKKDDTYDKEK
notes: source: E. coli, purified by GST tag
For B1, the binding result is recorded as “binds”.

B2: GST-UBN2 (109–291) (domain or fragment)
chain: PRESASRAEQPPRPPRETVRLELVLKDPTDESCVEFSYPELLLCGEQRKKLIHTEDPFNDEHQERQEVEMLAKKFEMKYGGKPRKHRKDRLQDLIDIGFGYDETDPFIDNSEAYDELVPASLTTKYGGFYINTGTLQFRQASDTEEDDITDNQKHKPPKVPKIKEDDIEMKKRKRKEEGEKEK
notes: UBN2, human, residues 109-291, contains the HRD domain; also called UBN2 (aa109-291); GST-UBN2-(aa109-291); source: E. coli, purified by GST tag
Consider B2, for which the binding result is given as “binds”.
